From patent US20230099801A1, “RESTORATION OF T CELL ACTIVITY VIA THE CD39/CD73 AXIS” (INNATE PHARMA, priority 2017, published 2023)
“Also recorded” adds a separate entry of the source.

How the values were obtained:
[1] = tested on: CHO cells expressing cynomolgus CD39 (CHO-cyCD39); experiment: Antibody titration on CHO-cyCD39 cells by flow cytometry; type: binding, cynomolgus (Macaca fascicularis)
Protocol: (§1) Cells were incubated with various concentration of unlabeled anti-CD39 antibody from 30 μg/ml to 5×10^−4 μg/ml, for 30 minutes at 4° C. After washes, cells were incubated with Goat anti-mouse H+L labeled secondary antibody for 30 min at 4° C.

[2] = molecular target: T1, CHO cells expressing murine CD39 (CHO-moCD39) (Mus musculus, UniProt P55772); experiment: Antibody titration on CHO-moCD39 cells by flow cytometry; type: binding
T1 construct: expressed in transfected cells; host or cells: CHO cells
T1 sequence (P55772 1-510): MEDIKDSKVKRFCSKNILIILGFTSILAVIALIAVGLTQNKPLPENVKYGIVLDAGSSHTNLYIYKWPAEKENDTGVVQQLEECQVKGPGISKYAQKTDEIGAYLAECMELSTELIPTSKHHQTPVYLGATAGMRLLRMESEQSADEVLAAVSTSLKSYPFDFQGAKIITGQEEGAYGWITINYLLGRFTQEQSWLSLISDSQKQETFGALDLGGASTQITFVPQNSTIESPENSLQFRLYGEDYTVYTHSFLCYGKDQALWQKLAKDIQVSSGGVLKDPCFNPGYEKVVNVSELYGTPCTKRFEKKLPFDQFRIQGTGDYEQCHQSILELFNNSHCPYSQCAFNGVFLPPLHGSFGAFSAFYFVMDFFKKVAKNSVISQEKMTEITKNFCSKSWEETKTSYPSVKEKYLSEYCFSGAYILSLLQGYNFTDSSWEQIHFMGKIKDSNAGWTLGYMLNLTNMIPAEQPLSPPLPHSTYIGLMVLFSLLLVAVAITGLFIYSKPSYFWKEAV
Protocol: as §1

human CD39 = molecular target: T2, human CD39 (Homo sapiens, UniProt P49961); experiment: ELISA titration on recombinant human CD39; type: binding
T2 sequence (P49961 1-510): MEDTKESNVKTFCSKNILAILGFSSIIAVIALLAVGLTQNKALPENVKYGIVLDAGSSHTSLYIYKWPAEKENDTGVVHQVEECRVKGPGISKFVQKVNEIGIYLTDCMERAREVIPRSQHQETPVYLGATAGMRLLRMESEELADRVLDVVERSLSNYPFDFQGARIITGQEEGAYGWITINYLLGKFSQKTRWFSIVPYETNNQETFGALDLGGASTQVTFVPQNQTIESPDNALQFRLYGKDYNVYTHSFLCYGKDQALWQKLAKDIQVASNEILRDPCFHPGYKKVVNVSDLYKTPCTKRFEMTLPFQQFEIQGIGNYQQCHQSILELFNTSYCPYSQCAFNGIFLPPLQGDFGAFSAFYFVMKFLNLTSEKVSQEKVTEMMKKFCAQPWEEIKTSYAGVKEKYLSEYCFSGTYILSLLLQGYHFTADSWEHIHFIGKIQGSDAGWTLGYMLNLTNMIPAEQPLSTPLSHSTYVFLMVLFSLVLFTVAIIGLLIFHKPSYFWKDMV
Protocol: (§2) Wells were washed in TBS Tween 20, and further saturated 2H at RT in TBS Blocking buffer. Dose range concentration of primary antibody was incubated in TBS blocking buffer for 2h at RT. Wells were washed in TBS Tween 20. […] Optical density was measured on Enspire™ at OD=450.

[3] = molecular target: T3, Human CD39-L1 (NTPDase2, ENTPD2) (Homo sapiens, UniProt Q9Y5L3); experiment: ELISA titration on CD39-L1; type: binding
T3 sequence (Q9Y5L3 1-472 isoform Q9Y5L3-2): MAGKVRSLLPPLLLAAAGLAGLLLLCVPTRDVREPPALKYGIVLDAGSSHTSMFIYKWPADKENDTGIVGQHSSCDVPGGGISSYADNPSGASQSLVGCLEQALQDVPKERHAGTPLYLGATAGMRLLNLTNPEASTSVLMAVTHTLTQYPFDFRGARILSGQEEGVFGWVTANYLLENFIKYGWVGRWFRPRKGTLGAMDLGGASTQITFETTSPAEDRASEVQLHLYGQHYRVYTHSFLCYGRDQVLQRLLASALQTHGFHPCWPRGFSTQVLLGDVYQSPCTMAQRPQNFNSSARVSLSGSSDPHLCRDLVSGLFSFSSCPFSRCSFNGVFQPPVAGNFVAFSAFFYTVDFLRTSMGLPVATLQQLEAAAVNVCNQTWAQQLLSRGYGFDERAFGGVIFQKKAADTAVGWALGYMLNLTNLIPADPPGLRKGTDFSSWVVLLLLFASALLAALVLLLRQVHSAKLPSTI
Protocol: as §2

[4] = molecular target: T4, Human CD39-L3 (NTPDase3, ENTPD3) (Homo sapiens, UniProt O75355); experiment: ELISA titration on CD39-L3; type: binding
T4 sequence (O75355 1-529): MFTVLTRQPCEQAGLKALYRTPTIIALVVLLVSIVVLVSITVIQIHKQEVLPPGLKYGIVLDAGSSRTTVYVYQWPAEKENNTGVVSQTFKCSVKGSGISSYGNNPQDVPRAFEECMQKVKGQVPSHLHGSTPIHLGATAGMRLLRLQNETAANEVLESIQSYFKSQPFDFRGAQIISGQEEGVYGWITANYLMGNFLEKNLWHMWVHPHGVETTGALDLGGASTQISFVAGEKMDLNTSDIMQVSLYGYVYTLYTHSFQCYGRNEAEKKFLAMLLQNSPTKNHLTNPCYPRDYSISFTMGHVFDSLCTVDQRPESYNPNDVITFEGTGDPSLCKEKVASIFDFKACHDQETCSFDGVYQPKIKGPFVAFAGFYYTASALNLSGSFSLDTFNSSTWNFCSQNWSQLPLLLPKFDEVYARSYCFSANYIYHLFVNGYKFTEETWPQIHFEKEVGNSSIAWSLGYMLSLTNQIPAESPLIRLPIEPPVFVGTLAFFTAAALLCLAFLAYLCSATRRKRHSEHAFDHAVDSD
Protocol: as §2

[5] = tested on: monocyte-derived DC (moDC); experiment: Activation of dendritic cells in presence of ATP; type: cell-based, human; conditions: ATP at each of 0.125 mM, 0.25 mM or 0.5 mM; I-394 at 10 μg/ml
Protocol: While ATP has pro-inflammatory activity, CD39-mediated catabolism of ATP is believed to be able to impair dendritic cell (DC) activation, in turn altering a broader adaptive immune response against tumor antigen. In order to evaluate whether CD39 blockade using anti-CD39 antibodies could overcome CD39-mediated alteration of dendritic cell (DC) activation in the presence of ATP, we incubated monocyte-derived DC (moDC) with anti-CD39 antibodies in the presence of ATP.
Briefly, human monocytes were purified from human healthy blood and differentiated into MoDC in presence of GM-CSF and IL-4 during 6 days. […] LPS (Invivogen, 10 ng/ml) was used as positive control. To assess resulting effect of ATP-mediated DC activation on CD4 T cells activation, ATP-activated DC were washed and then incubated with allogenic CD4 T cells (ratio 1 MoDC/4 T cells) for a mixed lymphocytes reaction (MLR) during 5 days. T cells activation and proliferation were analyzed through CD25 expression and Cell Trace Violet dilution by flow cytometry (FIG. 8).

B1: I-394: anti-CD39 antibody, VH SEQ ID NO: 6, VL SEQ ID NO: 7; heavy/light chains SEQ ID NOS: 52 and 53 (antibody)
heavy: EVQLQQSGPELVKPGASVKMSCKASGYTFTDYNMHWVKQSHGRTLEWIGYIVPLNGGSTFNQKFKGRATLTVNTSSRTAYMELRSLTSEDSAAYYCARGGTRFAYWGQGTLVTVSAASTKGPSVFPLAPSSKSTSGGTAALGCLVKDYFPEPVTVSWNSGALTSGVHTFPAVLQSSGLYSLSSVVTVPSSSLGTQTYICNVNHKPSNTKVDKRVEPKSCDKTHTCPPCPAPEAEGAPSVFLFPPKPKDTLMISRTPEVTCVVVDVSHEDPEVKFNWYVDGVEVHNAKTKPREEQYNSTYRVVSVLTVLHQDWLNGKEYKCKVSNKALPSSIEKTISKAKGQPREPQVYTLPPSREEMTKNQVSLTCLVKGFYPSDIAVEWESNGQPENNYKTTPPVLDSDGSFFLYSKLTVDKSRWQQGNVFSCSVMHEALHNHYTQKSLSLSPGK
light: DIVLTQSPASLAVSLGQRATISCRASESVDNFGVSFMYWFQQKPGQPPNLLIYGASNQGSGVPARFRGSGSGTDFSLNIHPMEADDTAMYFCQQTKEVPYTFGGGTKLEIKRTVAAPSVFIFPPSDEQLKSGTASVVCLLNNFYPREAKVQWKVDNALQSGNSQESVTEQDSKDSTYSLSSTLTLSKADYEKHKVYACEVTHQGLSSPVTKSFNRGEC
modifications: Chimeric homo sapiens mus musculus
**Q.** For B1, which “binding to cells expressing cynomolgus CD39” value [1] is on record?
**A.** Its value is “bound; also recorded: binds”.

**Q.** What about the “binding to cells expressing murine CD39” value [2] of the same molecule?
**A.** The value was “not to cells expressing murine CD39”.

**Q.** What about the “binding to human CD39 in ELISA” value (human CD39) of the same molecule?
**A.** Its value is “bound; also recorded: binds”.

**Q.** What about the “binding to CD39-L1 in ELISA” value [3] of the same molecule?
**A.** The value was “not to any of the human isoforms”.

**Q.** What about the “binding to CD39-L3 in ELISA” value [4] of the same molecule?
**A.** The value was “not to any of the human isoforms”.

**Q.** And the “moDC activation as assessed by HLA-DR or CD83 expression” value [5]?
**A.** The value was “permitted moDC activation; also recorded: lead to moDC activation”.
